In patent publication US20170002075A1 (AbbVie / Abbott, published 2017):

Legend:
[1] = biological target: T1, hRAGE (1-331) / human sRAGE 1-331, V#400 (human, UniProt Q15109 23-331); assay: competition ELISA on coated hRAGE (1-331); competitor biotinylated m11E6 at 0.3 µg/ml
T1 construct: also called sRAGE [RAGE (1-331)]; RAGE (antigen of the Biacore runs)
Method: ELISA plates (Costar 3369) were coated overnight at 4° C. with 50 μl/well of 2 μg/ml hRAGE (1-331) in 0.2 M sodium carbonate-bicarbonate buffer, pH 9.4, washed with Wash Buffer (PBS containing 0.1% Tween 20), and blocked for 1 hr at room temperature with 200 pd/well of 2% nonfat dry milk in PBS. […] After incubating the plates for 1 hr at room temperature, and washing with Wash Buffer, bound antibodies were detected using 100 μl/well of 1:10,000 dilution of HRP-conjugated streptavidin (Fitzgerald) in ELISA buffer. After incubating for 1 hr at room temperature, and washing with Wash Buffer, color development was performed by adding 100 μl/well of TMB Buffer (Zymed). After incubating for 15 min at room temperature, color development was stopped by adding 50 μl/well of IN hydrochloric acid. Absorbance was read at 490 nm.

[2] = biological target: T1, hRAGE (1-331) / human sRAGE 1-331, V#400; assay: Biacore SPR, mAb captured via anti-human Fc, sRAGE (1-331) injected 30-0.12 nM, PBS-P buffer, 1:1 fit
Source text: Biacore 2000 and Biacore T100 instruments were used to measure anti-RAGE mAb binding kinetics. The assay format for mAb affinity analysis was Fc-based capture via immobilized anti-Fc antibodies. A standard amine coupling protocol was employed to immobilize Fc-specific IgG via primary amines to the carboxy-methyl (CM) dextran surface of CM5 sensorchips (Biacore). For the study of mouse anti-RAGE mAbs, anti-mouse Fc (Biacore, anti-mouse, BR-1005-14) was used as the immobilized capture reagent and for the study of humanized anti-RAGE mAbs, anti-human Fc (Pierce 31125) was used as the immobilized capture reagent. An automated protocol, available on the Biacore 2000 and Biacore T100, was used to immobilize 8000-10000 RU of capture reagent in all 4 flowcells of the sensorchip. Briefly, the CM-dextran surfaces were activated by freshly prepared 1:1 50 mM N-hydroxysuccinimide (NHS):200 mM 3-(N,N-dimethylamino) propyl-N-ethylcarbodiimide (EDC). Then the anti-Fc IgG capture reagent (20 ug/ml in 10 mM sodium acetate, pH4.5) was applied to the surface followed by deactivation of the surface and blocking of the residual reactive sites with 1M ethanolamine (pH 8.5).
The running buffer employed was PBS-P [1×PBS (Sigma P3813), pH 7.4, 0.005% P20 surfactant (Biacore)] for the humanized antibodies. Each experimental cycle consisted of the following steps: 1) anti-RAGE mAbs were captured in flowcells 2, 3 or 4 to a level of 50-200 RU (depending on the antigen). All measurements were referenced against flowcell 1 which had no captured anti-RAGE mAb. 2) Antigen was injected through all 4 flowcells, 240 ul at 80 ul/min. After the antigen injection, dissociation was monitored for 600 seconds at 80 ul/min. 3) the anti-Fc capture surface was regenerated with low pH glycine. For kinetic determinations, antigen injections were a 3 fold dilution series from either 30 nM-0.12 nM (for sRAGE [RAGE (1-331)] and buffer only in randomized duplicates.
Data were processed using either Biacore evaluation software or Scrubber 2.0 software (BioLogic Software). Briefly, the data were double referenced by first, subtracting the signal from the reference cell and second, by subtracting the signal from buffer-only injections.

[3] = biological target: T2, recombinant human RAGE (plate coat of the competition ELISA of Example 1.4); assay: competition ELISA on plates coated with recombinant human RAGE (2 µg/mL); competitor: biotinylated hybridoma-derived 7F9 (7F9-biotin), streptavidin-HRP, OD 450 nm; the unit comes from the axis 'Log MAbs (M)'
T2 construct: not shown: The carrier of the coated preparation, if it had one
Method: (§1) The purified chimeric anti-human RAGE monoclonal antibodies were tested for their ability to bind human RAGE in a competition ELISA. […] Equal volumes (50 μL) of each recombinant chimeric anti-human RAGE monoclonal antibodies or hybridoma-derived anti-human RAGE monoclonal antibodies and each corresponding biotinylated hybridoma-derived anti-RAGE mAbs were mixed. 50 μL of this mixture was then added to ELISA plates pre-coated with recombinant human RAGE at 2 μg/mL and incubated for 1.5 hours at room temperature. Wells were washed three times with PBS+0.05% Tween-20. Streptavidin HRP (1 mg/mL) was diluted 1:16000 in PBST+10% Superblock; 50 µL/well was added and the plates incubated for 1 hour at room temperature. Plates were washed 3 times with PBS+0.05% Tween-20. 50 µL of TMB solution (Sigma, St Louis, Mo.) was added to each well and incubated for 10 minutes at room temperature. The reaction was stopped by addition of IN sulphuric acid. Plates were read spectrophotometrically at a wavelength of 450 nm.

[4] = biological target: T2, recombinant human RAGE (plate coat of …); assay: competition ELISA on plates coated with recombinant human RAGE (2 µg/mL); competitor: biotinylated hybridoma-derived 11E6 (11E6-biotin), streptavidin-HRP, OD 450 nm; the unit comes from the axis 'Log MAbs (M)'
Method: as §1

T1 sequence (Q15109 23-331): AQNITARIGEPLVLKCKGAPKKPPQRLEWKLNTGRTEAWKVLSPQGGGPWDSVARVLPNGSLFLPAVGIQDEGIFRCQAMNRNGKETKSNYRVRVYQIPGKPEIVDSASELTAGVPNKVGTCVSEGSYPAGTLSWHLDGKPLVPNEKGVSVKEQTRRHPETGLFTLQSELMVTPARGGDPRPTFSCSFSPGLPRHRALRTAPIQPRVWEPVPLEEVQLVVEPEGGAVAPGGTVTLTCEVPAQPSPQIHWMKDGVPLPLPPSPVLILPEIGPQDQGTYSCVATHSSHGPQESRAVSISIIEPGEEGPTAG
T2 sequence (chain, as listed by the source limits assumed): as the sequence (Q15109 23-331) above

Binder	IC50 [1] [nM]	further results
humanized anti-RAGE antibody h11E6.11 (antibody, V domains shown, Full-length humanized antibody transiently produced in 293-6E cells) VH: EVQLVQSGAEVKKPGASVKVSCKASGYTFTNFGMNWVRQAPGQGLEWMGYINTNTGESIYSEEFKGRVTMTRDTSTSTAYMELSSLRSEDTAVYYCARSRMVTAYGMDYWGQGTSVTVSS VL: EIVMTQSPATLSLSPGERATLSCKASQNVGTAVAWYQQKPGQAPRLLIYSASNRYTGIPARFSGSGSGTDFTLTISSLQSEDFAVYYCQQYSSYPLTFGQGTKLEIKR	19.9	–
humanized anti-RAGE antibody h11E6.1 (antibody, V domains shown, Full-length humanized antibody transiently produced in 293-6E cells) VH: EVQLVQSGSELKKPGASVKVSCKASGYTFTNFGMNWVRQAPGQGLEWMGYINTNTGESIYSEEFKGRFVFSLDTSVSTAYLQICSLKAEDTAVYYCARSRMVTAYGMDYWGQGTTVTVSS VL: DIQMTQSPSSLSASVGDRVTITCKASQNVGTAVAWYQQKPGKAPKLLIYSASNRYTGVPSRFSGSGSGTDFTLTISSLQPEDFATYYCQQYSSYPLTFGQGTKLEIKR	19.7	–
humanized anti-RAGE antibody h11E6.13 (antibody, V domains shown, Full-length humanized antibody transiently produced in 293-6E cells) VH: EIQLVQSGAEVKKPGASVKVSCKASGYTFTNFGMNWVRQAPGQGLEWMGYINTNTGESIYSEEFKGRFTFTLDTSTSTAYMELSSLRSEDTAVYFCARSRMVTAYGMDYWGQGTSVTVSS VL: DIQMTQSPSSLSASVGDRVTITCKASQNVGTAVAWYQQKPGKAPKLLIYSASNRYTGVPSRFSGSGSGTDFTLTISSLQPEDFATYYCQQYSSYPLTFGQGTKLEIKR	16.8	–
humanized anti-RAGE antibody h11E6.3 (antibody, V domains shown, Full-length humanized antibody transiently produced in 293-6E cells) VH: EVQLVQSGSELKKPGASVKVSCKASGYTFTNFGMNWVRQAPGQGLEWMGYINTNTGESIYSEEFKGRFVFSLDTSVSTAYLQICSLKAEDTAVYYCARSRMVTAYGMDYWGQGTTVTVSS VL: EIVMTQSPATLSLSPGERATLSCKASQNVGTAVAWYQQKPGQAPRLLIYSASNRYTGIPARFSGSGSGTDFTLTISSLQSEDFAVYYCQQYSSYPLTFGQGTKLEIKR	18.8	–
humanized anti-RAGE antibody h11E6.9 (antibody, V domains shown, Full-length humanized antibody transiently produced in 293-6E cells) VH: EVQLVQSGAEVKKPGASVKVSCKASGYTFTNFGMNWVRQAPGQGLEWMGYINTNTGESIYSEEFKGRVTMTRDTSTSTAYMELSSLRSEDTAVYYCARSRMVTAYGMDYWGQGTSVTVSS VL: DIQMTQSPSSLSASVGDRVTITCKASQNVGTAVAWYQQKPGKAPKLLIYSASNRYTGVPSRFSGSGSGTDFTLTISSLQPEDFATYYCQQYSSYPLTFGQGTKLEIKR	17.9	–
7F9-recombinant (antibody, V domains shown, also called recombinant chimeric anti-human RAGE monoclonal antibody 7F9 (human IgG1/kappa)) VH: EEKLEESGGGLVQLGGSMKISCVASGFTLSNYWMDWVRQSPEKGLEWIAEIRLKSNYYSTHYAESVKGRFSISRDDSKGSVSLQMDNLTAEDTGIYFCARNAYWYFDVWGTGTTVTVSS VL: DIVMTQSHKFMSTSVGDRVSATCKASQDVGTSVAWYQQKLGQSPKLLIYWTSTRHTGVPDRFTGSGSGTDFTLTISNVQSEDLADYFCQQYNNYPLTFGDGTKLELKR	–	EC50 [3]: 108 nM
11E6-recombinant (antibody, V domains shown, also called recombinant chimeric anti-human RAGE monoclonal antibody 11E6 (human IgG1/kappa)) VH: QIQLVQSGPELKKPGETVKISCKASGYTFTNFGMNWVKQAPGKGLKWMGYINTNTGESIYSEEFKGRFAFSLETSASTAYLQINNLKNEDTATYFCARSRMVTAYGMDYWGQGTSVTVSS VL: DIVMTQSQKFMSTSVGDRVSITCKASQNVGTAVAWYQQRPGQSPKLLIFSASNRYTGVPDRFTGSGSGTDFTLTLSNMQPEDLADYFCQQYSSYPLTFGVGTKLELKR	–	EC50 [4]: 64.7 nM

Second part, led by results:

IC50 [1] [nM]	Binder	further results
11.3	humanized anti-RAGE antibody h11E6.12 (antibody, V domains shown, Full-length humanized antibody transiently produced in 293-6E cells) VH: EVQLVQSGAEVKKPGASVKVSCKASGYTFTNFGMNWVRQAPGQGLEWMGYINTNTGESIYSEEFKGRVTMTRDTSTSTAYMELSSLRSEDTAVYYCARSRMVTAYGMDYWGQGTSVTVSS VL: EIVMTQSPATLSLSPGERATLSCKASQNVGTAVAWYQQKPGQSPRLLIFSASNRYTGVPARFSGSGSGTDFTLTISSLQSEDFAVYFCQQYSSYPLTFGQGTKLEIKR	Kd [2]: 0.083 nM; koff [2]: 0.0017 s⁻¹; kon [2]: 2e+07 M⁻¹ s⁻¹
14	humanized anti-RAGE antibody h11E6.15 (antibody, V domains shown, Full-length humanized antibody transiently produced in 293-6E cells) VH: EIQLVQSGAEVKKPGASVKVSCKASGYTFTNFGMNWVRQAPGQGLEWMGYINTNTGESIYSEEFKGRFTFTLDTSTSTAYMELSSLRSEDTAVYFCARSRMVTAYGMDYWGQGTSVTVSS VL: EIVMTQSPATLSLSPGERATLSCKASQNVGTAVAWYQQKPGQAPRLLIYSASNRYTGIPARFSGSGSGTDFTLTISSLQSEDFAVYYCQQYSSYPLTFGQGTKLEIKR	–
9.2	humanized anti-RAGE antibody h11E6.16 (antibody, V domains shown, Full-length humanized antibody transiently produced in 293-6E cells) VH: EIQLVQSGAEVKKPGASVKVSCKASGYTFTNFGMNWVRQAPGQGLEWMGYINTNTGESIYSEEFKGRFTFTLDTSTSTAYMELSSLRSEDTAVYFCARSRMVTAYGMDYWGQGTSVTVSS VL: EIVMTQSPATLSLSPGERATLSCKASQNVGTAVAWYQQKPGQSPRLLIFSASNRYTGVPARFSGSGSGTDFTLTISSLQSEDFAVYFCQQYSSYPLTFGQGTKLEIKR	Kd [2]: 0.05 nM; koff [2]: 0.0014 s⁻¹; kon [2]: 2.8e+07 M⁻¹ s⁻¹
16.1	humanized anti-RAGE antibody h11E6.5 (antibody, V domains shown, Full-length humanized antibody transiently produced in 293-6E cells) VH: EIQLVQSGSELKKPGASVKVSCKASGYTFTNFGMNWVRQAPGQGLEWMGYINTNTGESIYSEEFKGRFVFSLDTSVSTAYLQICSLKAEDTAVYFCARSRMVTAYGMDYWGQGTTVTVSS VL: DIQMTQSPSSLSASVGDRVTITCKASQNVGTAVAWYQQKPGKAPKLLIYSASNRYTGVPSRFSGSGSGTDFTLTISSLQPEDFATYYCQQYSSYPLTFGQGTKLEIKR	–
10.8	humanized anti-RAGE antibody h11E6.8 (antibody, V domains shown, Full-length humanized antibody transiently produced in 293-6E cells) VH: EIQLVQSGSELKKPGASVKVSCKASGYTFTNFGMNWVRQAPGQGLEWMGYINTNTGESIYSEEFKGRFVFSLDTSVSTAYLQICSLKAEDTAVYFCARSRMVTAYGMDYWGQGTTVTVSS VL: EIVMTQSPATLSLSPGERATLSCKASQNVGTAVAWYQQKPGQSPRLLIFSASNRYTGVPARFSGSGSGTDFTLTISSLQSEDFAVYFCQQYSSYPLTFGQGTKLEIKR	Kd [2]: 0.033 nM; koff [2]: 0.00084 s⁻¹; kon [2]: 2.5e+07 M⁻¹ s⁻¹
15.5	humanized anti-RAGE antibody h11E6.7 (antibody, V domains shown, Full-length humanized antibody transiently produced in 293-6E cells) VH: EIQLVQSGSELKKPGASVKVSCKASGYTFTNFGMNWVRQAPGQGLEWMGYINTNTGESIYSEEFKGRFVFSLDTSVSTAYLQICSLKAEDTAVYFCARSRMVTAYGMDYWGQGTTVTVSS VL: EIVMTQSPATLSLSPGERATLSCKASQNVGTAVAWYQQKPGQAPRLLIYSASNRYTGIPARFSGSGSGTDFTLTISSLQSEDFAVYYCQQYSSYPLTFGQGTKLEIKR	–
14.1	humanized anti-RAGE antibody h11E6.4 (antibody, V domains shown, Full-length humanized antibody transiently produced in 293-6E cells) VH: EVQLVQSGSELKKPGASVKVSCKASGYTFTNFGMNWVRQAPGQGLEWMGYINTNTGESIYSEEFKGRFVFSLDTSVSTAYLQICSLKAEDTAVYYCARSRMVTAYGMDYWGQGTTVTVSS VL: EIVMTQSPATLSLSPGERATLSCKASQNVGTAVAWYQQKPGQSPRLLIFSASNRYTGVPARFSGSGSGTDFTLTISSLQSEDFAVYFCQQYSSYPLTFGQGTKLEIKR	–
